Reference: patent publication US20210380703A1 (RIGEL PHARMACEUTICALS, published 2021)
Values belong to the binder of their own block, whether it stands above or below them.

Tests used:
[1] = target: mouse ACVR2A (mouse, UniProt P27038 20-135, limits assumed); experiment: ELISA
Procedure, shortened: (§1)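 mAb binding by ELISA; antigens: hu ACVR2A, mu ACVR2A; pos ctrl biotinylated goat anti-hu kappa LC; neg ctrl hu Fc.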

[2] = target: T1, human ACVR2A (human, UniProt P27037 20-135, limits assumed); experiment: ELISA
T1 construct: also called activin receptor, type II A
T1 sequence (P27037 20-135 limits assumed): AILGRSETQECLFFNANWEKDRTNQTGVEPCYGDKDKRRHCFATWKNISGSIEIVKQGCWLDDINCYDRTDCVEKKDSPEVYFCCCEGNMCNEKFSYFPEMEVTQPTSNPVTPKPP
Procedure, shortened: as §1

[3] = target: T2, biotinylated goat anti-human kappa light chain; experiment: ELISA, positive control
T2 construct: Positive control of the ELISA
Procedure, shortened: as §1
Also: test concentration or dose not given here.

Sequence of mouse ACVR2A (P27038 20-135 limits assumed): as the sequence (P27037 20-135 limits assumed) above, with K20R, V73I counted along it

B4: 374_C07 (antibody, V domains shown)
VH: EVQLLESGGGLVQPGGSLRLSCAASGFTFDSYSMNWVRQAPGKGLEWVSNINYNGGYTSYADSVKGRFTISRDNSKNTLYLQMNSLRAEDTAVYYCARSATWHDTHLDYWGQGTLVTVSS
VL: DIQMTQSPSSLSASVGDRVTITCRASQSIISYLNWYQQKPGKAPKLLIYAATSRASGVPSRFSGSGSGTDFTLTISSLQPEDFATYYCQQSDELPLTFGGGTKVEIK
notes: VH and VL only
optical density [1]: 3.7 OD | optical density [2]: 3.65 OD | optical density [3]: 3.22 OD

B5: 374_D11 (antibody, V domains shown)
VH: EVQLLESGGGLVQPGGSLRLSCAASGFTFDSYGMNWVRQAPGKGLEWVSNINYNSGYTGYADSVKGRFTISRDNSKNTLYLQMNSLRAEDTAVYYCARSATWHDTHLDYWGQGTLVTVSS
VL: DIQMTQSPSSLSASVGDRVTITCRASQSILTYLNWYQQKPGKAPKLLIYAATSRASGVPSRFSGSGSGTDFTLTISSLQPEDFATYYCQQSYETPLTFGGGTKVEIK
notes: VH and VL only
optical density [1]: 3.58 OD | optical density [2]: 3.64 OD | optical density [3]: 2.9 OD

B7: 374_E04 (antibody, V domains shown)
VH: EVQLLESGGGLVQPGGSLRLSCAASGFTFSSYSMNWVRQAPGKGLEWVSGINYNSGYKSYADSVKGRFTISRDNSKNTLYLQMNSLRAEDTAVYYCARSATWHDTHLDYWGQGTLVTVSS
VL: DIQMTQSPSSLSASVGDRVTITCRASQSILSYLNWYQQKPGKAPKLLIYAVTSRASGVPSRFSGSGSGTDFTLTISSLQPEDFATYYCQQSYNNPLTFGGGTKVEIK
notes: VH and VL only
optical density [1]: 3.72 OD | optical density [2]: 3.74 OD | optical density [3]: 3.19 OD

B8: 374_E06 (antibody, V domains shown)
VH: EVQLLESGGGLVQPGGSLRLSCAASGFTFDSYSMNWVRQAPGKGLEWVSSINYNSGYKGYADSVKGRFTISRDNSKNTLYLQMNSLRAEDTAVYYCARSATWHDTHLDYWGQGTLVTVSS
VL: DIQMTQSPSSLSASVGDRVTITCRASQSILSYLNWYQQKPGKAPKLLIYAATSRASGVPSRFSGSGSGTDFTLTISSLQPEDFATYYCQQSYDLPLTFGGGTKVEIK
notes: VH and VL only
optical density [1]: 3.75 OD | optical density [2]: 3.84 OD | optical density [3]: 3.25 OD

B9: 374_F09 (antibody, V domains shown)
VH: EVQLLESGGGLVQPGGSLRLSCAASGFTFSSYGMNWVRQAPGKGLEWVSSINYNSGYTSYADSVKGRFTISRDNSKNTLYLQMNSLRAEDTAVYYCARSATWHDTHLDYWGQGTLVTVSS
VL: DIQMTQSPSSLSASVGDRVTITCRASQSISSYVNWYQQKPGKAPKLLIYAATSRASGVPSRFSGSGSGTDFTLTISSLQPEDFATYYCQQSYSTPLTFGGGTKVEIK
notes: VH and VL only
optical density [1]: 3.62 OD | optical density [2]: 3.53 OD | optical density [3]: 3.14 OD

B11: 374_G02 (antibody, V domains shown)
VH: EVQLLESGGGLVQPGGSLRLSCAASGFTFDSYSMNWVRQAPGKGLEWVSGINYNSGYTSYADSVKGRFTISRDNSKNTLYLQMNSLRAEDTAVYYCARSATWHDTHLDYWGQGTLVTVSS
VL: DIQMTQSPSSLSASVGDRVTITCRASQSILTYLNWYQQKPGKAPKLLIYAASSLQSGVPSRFSGSGSGTDFTLTISSLQPEDFATYYCQQSYDTPLTFGGGTKVEIK
notes: VH and VL only
optical density [1]: 3.54 OD | optical density [2]: 3.52 OD | optical density [3]: 3.17 OD

B12: 374_G12 (antibody, V domains shown)
VH: EVQLLESGGGLVQPGGSLRLSCAASGFTFDDYGMNWVRQAPGKGLEWVSSINYNGGYKSYADSVKGRFTISRDNSKNTLYLQMNSLRAEDTAVYYCARSATWHDTHLDYWGQGTLVTVSS
VL: DIQMTQSPSSLSASVGDRVTITCRASQSILTYVNWYQQKPGKAPKLVIYAATSLASGVPSRFSGSGSGTDFTLTISSLQPEDFATYYCQQSYNSPLTFGGGTKVEIK
notes: VH and VL only
optical density [1]: 3.21 OD | optical density [2]: 3.19 OD | optical density [3]: 3.15 OD

B13: 375_B10 (antibody, V domains shown)
VH: EVQLLESGGGLVQPGGSLRLSCAASGFTFDSYSMNWVRQAPGKGLEWVSGINYNSGYTSYADSVKGRFTISRDNSKNTLYLQMNSLRAEDTAVYYCARSATWHDTHLDYWGQGTLVTVSS
VL: DIQMTQSPSSLSASVGDRVTITCRASQSILSYLNWYQQKPGKAPKLLIYAATSRHSGVPSRFSGSGSGTDFTLTISSLQPEDFATYYCQQSYDLPLTFGGGTKVEIK
notes: VH and VL only
optical density [1]: 3.74 OD | optical density [2]: 3.65 OD | optical density [3]: 3.14 OD

Other lines, results leading:

optical density [1]: 2.98 OD | optical density [2]: 3.06 OD | optical density [3]: 3 OD
B1: 373_H12 (antibody, V domains shown)
VH: EVQLLESGGGLVQPGGSLRLSCAASGFTFSDYSMNWVRQAPGKGLEWVSGINYNSGYKGYADSVKGRFTISRDNSKNTLYLQMNSLRAEDTAVYYCARSATWHDTHLDYWGQGTLVTVSS
VL: DIQMTQSPSSLSASVGDRVTITCRASQSILTYLNWYQQKPGKAPKLLIYAATSRASGVPSRFSGSGSGTDFTLTISSLQPEDFATYYCQQSYNSPLTFGGGTKVEIK
notes: VH and VL only

optical density [1]: 3.67 OD | optical density [2]: 3.59 OD | optical density [3]: 2.94 OD
B2: 374_A08 (antibody, V domains shown)
VH: EVQLLESGGGLVQPGGSLRLSCAASGFTFDSYSMNWVRQAPGKGLEWVSNINYNSGYTSYADSVKGRFTISRDNSKNTLYLQMNSLRAEDTAVYYCARSATWHDTHLDYWGQGTLVTVSS
VL: DIQMTQSPSSLSASVGDRVTITCRASQSIVTYLNWYQQKPGKAPKLLIYAATSLASGVPSRFSGSGSGTDFTLTISSLQPEDFATYYCQQSYDLPLTFGGGTKVEIK
notes: VH and VL only

optical density [1]: 3.66 OD | optical density [2]: 3.69 OD | optical density [3]: 3.17 OD
B3: 374_B11 (antibody, V domains shown)
VH: EVQLLESGGGLVQPGGSLRLSCAASGFTFSSYSMNWVRQAPGKGLEWVSGINYNSGYKSYADSVKGRFTISRDNSKNTLYLQMNSLRAEDTAVYYCARSATWHDTHLDYWGQGTLVTVSS
VL: DIQMTQSPSSLSASVGDRVTITCRASQSILTYVNWYQQKPGKAPKLVIYAATSRASGVPSRFSGSGSGTDFTLTISSLQPEDFATYYCQQSYDLPLTFGGGTKVEIK
notes: VH and VL only

optical density [1]: 3.79 OD | optical density [2]: 3.72 OD | optical density [3]: 3.13 OD
B6: 374_E03 (antibody, V domains shown)
VH: EVQLLESGGGLVQPGGSLRLSCAASGFTFSSYSMNWVRQAPGKGLEWVSNINYNSGYKGYADSVKGRFTISRDNSKNTLYLQMNSLRAEDTAVYYCARSATWHDTHLDYWGQGTLVTVSS
VL: DIQMTQSPSSLSASVGDRVTITCRASQSILTYVNWYQQKPGKAPKLVIYAATSLASGVPSRFSGSGSGTDFTLTISSLQPEDFATYYCQQSYDTPLTFGGGTKVEIK
notes: VH and VL only

optical density [1]: 3.6 OD | optical density [2]: 3.34 OD | optical density [3]: 2.92 OD
B10: 374_G01 (antibody, V domains shown)
VH: EVQLLESGGGLVQPGGSLRLSCAASGFTFDSYSMNWVRQAPGKGLEWVSNINYNSGYTSYADSVKGRFTISRDNSKNTLYLQMNSLRAEDTAVYYCARSATWHDTHLDYWGQGTLVTVSS
VL: DIQMTQSPSSLSASVGDRVTITCRASQSILTYVNWYQQKPGKAPKLLIYATTSRHSGVPSRFSGSGSGTDFTLTISSLQPEDFATYYCQQSYNLPLTFGGGTKVEIK
notes: VH and VL only

optical density [1]: 3.46 OD | optical density [2]: 3.16 OD | optical density [3]: 2.96 OD
B14: 375_F01 (antibody, V domains shown)
VH: EVQLLESGGGLVQPGGSLRLSCAASGFTFSSYSMNWVRQAPGKGLEWVSSINYNSGYTGYADSVKGRFTISRDNSKNTLYLQMNSLRAEDTAVYYCARSATWHDTHLDYWGQGTLVTVSS
VL: DIQMTQSPSSLSASVGDRVTITCRASQSIVSYLNWYQQKPGKAPKLVIYAATSRASGVPSRFSGSGSGTDFTLTISSLQPEDFATYYCQQSYDNPLTFGGGTKVEIK
notes: VH and VL only
